Article PMC5443830

Molecular target: Cry1AcMod activated toxin (Bacillus thuringiensis) (UniProt P05068)
Test: SDS-PAGE and western blot of the 200 kDa oligomer band

Cry1AcMod activated toxin (from UniProt P05068 1-1178) (domain or fragment)
optical density of the 200 kDa oligomer band with BBMV from the resistant strain relative to BBMV from the susceptible strain (=100%): 100%
